Test results taken from patent US12329823B2 (The Scripps Research Institute, priority 2021, dated 2025).

Experiments:
[1] = biological target: cynomolgous monkey GLP1R (Macaca fascicularis, UniProt F8V479); experiment: In vitro potency, cynomolgous monkey GLP1R activation (receptor-mediated cAMP synthesis); format: cell-based; settings: Table 12; read-out: In Vitro Potency GLP1R EC50, Cyno
Experimental: (§1) GLP-1R-CRE or HEK293-GIPR-CRE cells were seeded in 384-well plates at a density of 5000 cells per well and cultured for 18 h in DMEM with 10% FBS at 37° C. and 5% CO2. Cells were treated with peptides in a dose dependent manner for 24 h, and receptor activation was reported by luminescence intensities, using One-Glo (Promega, WI) luciferase reagent following manufacturer's instruction. The EC50 of each peptide was determined using GraphPad Prism 6 software (GraphPad, San Diego, CA). Results are depicted in FIGS. 6A-6B, FIGS. 7A-7B, FIGS. 8A-8B, FIGS. 9A-9B, and Tables 7-12. Measurements of peptide conjugate potency were expressed as half maximal effective concentration (EC50) values.

[2] = biological target: T1, dog GLP1R (Canis lupus familiaris, UniProt A0A8I3NUR9); experiment: In vitro potency, dog GLP1R activation (receptor-mediated cAMP synthesis); format: cell-based; settings: Table 12
T1 sequence (A0A8I3NUR9 1-464): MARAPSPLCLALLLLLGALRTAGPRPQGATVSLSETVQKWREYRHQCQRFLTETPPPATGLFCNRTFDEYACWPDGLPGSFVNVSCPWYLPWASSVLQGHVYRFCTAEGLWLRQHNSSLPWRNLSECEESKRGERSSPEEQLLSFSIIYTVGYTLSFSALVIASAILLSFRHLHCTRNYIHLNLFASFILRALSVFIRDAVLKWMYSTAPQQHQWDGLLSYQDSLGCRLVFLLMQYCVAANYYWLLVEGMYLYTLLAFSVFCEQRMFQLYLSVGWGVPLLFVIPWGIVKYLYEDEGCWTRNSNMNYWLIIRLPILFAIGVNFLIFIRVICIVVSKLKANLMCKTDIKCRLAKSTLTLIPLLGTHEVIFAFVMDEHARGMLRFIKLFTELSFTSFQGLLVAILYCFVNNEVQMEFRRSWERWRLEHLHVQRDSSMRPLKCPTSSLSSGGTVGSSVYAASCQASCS
Experimental: as §1

[3] = biological target: T2, dog GIPR (Canis lupus familiaris, UniProt A0A8I3MPG1); experiment: In vitro potency, dog GIPR activation (receptor-mediated cAMP synthesis); format: cell-based; settings: Table 12; read-out: In Vitro Potency GIPR EC50, Dog
T2 sequence (A0A8I3MPG1 24-449): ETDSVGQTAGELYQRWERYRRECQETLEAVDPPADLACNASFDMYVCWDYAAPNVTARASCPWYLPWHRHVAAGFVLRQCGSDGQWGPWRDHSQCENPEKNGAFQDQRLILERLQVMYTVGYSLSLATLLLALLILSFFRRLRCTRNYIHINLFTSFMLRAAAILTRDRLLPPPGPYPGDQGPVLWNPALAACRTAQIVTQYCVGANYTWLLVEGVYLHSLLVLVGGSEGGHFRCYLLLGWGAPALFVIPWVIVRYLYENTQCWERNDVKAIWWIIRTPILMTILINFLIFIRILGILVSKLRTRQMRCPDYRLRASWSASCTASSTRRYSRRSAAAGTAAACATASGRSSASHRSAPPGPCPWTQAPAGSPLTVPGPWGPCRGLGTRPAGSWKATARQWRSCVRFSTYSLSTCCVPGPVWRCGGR
Experimental: as §1

[4] = in vivo; settings: cynomolgus monkey
[5] = in vivo; settings: dog

cynomolgous monkey GLP1R, sequence (F8V479 24-463): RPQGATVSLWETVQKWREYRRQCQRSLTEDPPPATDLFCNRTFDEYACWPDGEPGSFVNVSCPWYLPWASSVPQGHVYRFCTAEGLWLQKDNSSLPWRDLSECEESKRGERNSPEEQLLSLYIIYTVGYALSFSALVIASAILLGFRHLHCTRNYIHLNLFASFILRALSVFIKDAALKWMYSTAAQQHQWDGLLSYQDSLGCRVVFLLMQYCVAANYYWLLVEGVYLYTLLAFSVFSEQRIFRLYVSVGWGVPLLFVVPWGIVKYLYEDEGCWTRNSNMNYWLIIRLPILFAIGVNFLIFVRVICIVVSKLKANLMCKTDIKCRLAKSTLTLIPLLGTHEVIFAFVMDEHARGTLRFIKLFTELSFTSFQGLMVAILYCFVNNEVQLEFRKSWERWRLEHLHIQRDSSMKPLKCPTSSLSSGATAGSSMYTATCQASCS

Structure (SMILES) | EC50 [1] [nM] | EC50 [2] [nM] | EC50 [3] [nM] | T last ([4]; iv) [h] | Vd ([4]; iv) [L/kg] | clearance ([4]; iv) [mL/day/kg] | half-life ([4]; iv) [days] | AUC(0-t) ([4]; sc) [µg·h/mL] | Cmax ([4]; sc) [ng/mL] | T last ([4]; sc) [h] | Tmax ([4]; sc) [h] | bioavailability ([4]; sc) [%] | half-life ([4]; sc) [days] | AUC(0-t) ([5]; iv) [ng·h/mL] | T last ([5]; iv) [h] | Vd ([5]; iv) [L/kg] | clearance ([5]; iv) [mL/h/kg] | half-life ([5]; iv) [days] | further results
CC[C@H](C)[C@H](NC(=O)[C@H](CC(C)C)NC(=O)[C@H](Cc1c[nH]c2ccccc12)NC(=O)[C@@H]1CSCC(=O)NCCN(C(=O)CCC(=O)NCCOCCOCCC(=O)NCCOCCOCCC(=O)NCCCC[C@H](NC(=O)CCCCCCCCCCCCCCCCCCC(=O)O)C(=O)O)CCNC(=O)CSC[C@H](NC(=O)[C@H](CCCCN)NC(=O)[C@H](CC(=O)O)NC(=O)[C@H](CC(C)C)NC(=O)[C@H](Cc2ccc(O)cc2)NC(=O)[C@@H](NC(=O)[C@H](CO)NC(=O)[C@H](Cc2ccc(O)cc2)NC(=O)[C@H](CC(=O)O)NC(=O)[C@H](CO)NC(=O)[C@@H](NC(=O)[C@H](Cc2ccccc2)NC(=O)[C@@H](NC(=O)CNC(=O)[C@H](CCC(=O)O)NC(=O)C(C)(C)NC(=O)[C@@H](N)Cc2ccc(O)cc2)[C@@H](C)O)[C@@H](C)O)[C@@H](C)CC)C(=O)N[C@@H](C)C(=O)N[C@@H](C)C(=O)NC(C)(C)C(=O)N[C@@H](CCC(=O)O)C(=O)N[C@@H](Cc2ccccc2)C(=O)N[C@@H](C(C)C)C(=O)N1)C(=O)N[C@@H](C)C(=O)NCC(=O)NCC(=O)N1CCC[C@H]1C(=O)N[C@@H](CO)C(=O)N[C@@H](CO)C(=O)NCC(=O)N[C@@H](C)C(=O)N1CCC[C@H]1C(=O)N1CCC[C@H]1C(=O)N1CCC[C@H]1C(=O)N[C@@H](CO)C(N)=O [mCMV268] | 0.22 | 1.48 | 0.42 | 504 | 0.0612 | 20.2 | 2.45 | 438 | 3930 | 504 | 14.7 | 73.7 | 2.52 | 59200 | 168 | 0.0957 | 1.09 | 2.66 | Cmax ([5]; iv): 8500 ng/mL; Tmax ([5]; iv): 0.693 h; AUC(0-t) ([5]; po): 1700 ng·h/mL; Cl ([5]; po): 21.6 mL/min/kg; Cmax ([5]; po): 31.4 ng/mL; T last ([5]; po): 144 h; Tmax ([5]; po): 1 h; bioavailability ([5]; po): 0.27%, 0.27%,; half-life ([5]; po): 3.24 days
CC[C@H](C)[C@H](NC(=O)[C@H](CC(C)C)NC(=O)[C@H](Cc1c[nH]c2ccccc12)NC(=O)[C@@H]1CSCC(=O)NCCN(C(=O)CCC(=O)NCCOCCOCCC(=O)NCCOCCOCCC(=O)NCCCC[C@H](NC(=O)CCCCCCCCCCCCCCCCC(=O)O)C(=O)O)CCNC(=O)CSC[C@H](NC(=O)[C@H](CCCCN)NC(=O)[C@H](CC(=O)O)NC(=O)[C@H](CC(C)C)NC(=O)[C@H](Cc2ccc(O)cc2)NC(=O)[C@@H](NC(=O)[C@H](CO)NC(=O)[C@H](Cc2ccc(O)cc2)NC(=O)[C@H](CC(=O)O)NC(=O)[C@H](CO)NC(=O)[C@@H](NC(=O)[C@H](Cc2ccccc2)NC(=O)[C@@H](NC(=O)CNC(=O)[C@H](CCC(=O)O)NC(=O)C(C)(C)NC(=O)[C@@H](N)Cc2ccc(O)cc2)[C@@H](C)O)[C@@H](C)O)[C@@H](C)CC)C(=O)N[C@@H](C)C(=O)N[C@@H](C)C(=O)NC(C)(C)C(=O)N[C@@H](CCC(=O)O)C(=O)N[C@@H](Cc2ccccc2)C(=O)N[C@@H](C(C)C)C(=O)N1)C(=O)N[C@@H](C)C(=O)NCC(=O)NCC(=O)N1CCC[C@H]1C(=O)N[C@@H](CO)C(=O)N[C@@H](CO)C(=O)NCC(=O)N[C@@H](C)C(=O)N1CCC[C@H]1C(=O)N1CCC[C@H]1C(=O)N1CCC[C@H]1C(=O)N[C@@H](CO)C(N)=O [mCMZ371, YAibEGT-FTSDY-SIYLD-KXAAAib-EFVXW-LIAGG-PSSGA-PPPS-NH2 (where each X is C) (SEQ ID NO: 61)] | 0.11 | 1.34 | 0.47 | 240 | 0.0538 | 18.1 | 2.51 | 156 | 1740 | 240 | 24 | 58.5 | 2.05 | 25600 | 240 | 0.11 | 1.19 | 3 | t1/2 in cynomolgus monkeys (in words) [4]: long t1/2; AUC(0-t) ([4]; iv): 267 µg·h/mL; t1/2 in dogs (in words) [5]: long t1/2; AUC(0-t) ([5]; sc): 17600 ng·h/mL; Cmax ([5]; sc): 150 ng/mL; T last ([5]; sc): 240 h; Tmax ([5]; sc): 24 h; half-life ([5]; sc): 2.61 days; bioavailability ([5]; sc, Bioavailability): 68.7%
